Here are results for 14 variants from the supplement of paper PMC7125110.

± gives the standard error. For some of these results: Fewer inactive variants are shown than the library holds.

First the molecules themselves.
B1: glmS ribozyme (parent)
chain: AUAAAAGCGCCAGAACUACAGAAAUGUAGUUGACGAGGAGGAGGUUUAUCGAAUUUUCGGCGGAUGCCUCCAAA

Common to all, as to settings: with glucosamine-6-phosphate
Variants of B1 are the subject of series [1]. Nature of the series: kcat; higher = faster cleavage; RNA array. Put shortly: (§1)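 Barcoded ribozyme variants were transcribed in situ on sequenced MiSeq chips by E. coli RNA polymerase. At 37 °C, a hybridised Cy3 probe tracked them while glucosamine-6-phosphate (40 μM to 10 mM) in HEPES/KCl/Mg(OAc)2 buffer flowed in and tiles were imaged over ~14 h. Per-tile medians of signals normalised to baseline and to non-cleaving reference variants were fit to one- or two-exponential decays, giving kobs. kcat and KM came from weighted Michaelis–Menten fits across concentrations.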

Variants of B1 are the subject of series [2]. Nature of the series: KM; higher = weaker cofactor use; RNA array. In a few lines: as §1
The variants in series [3] derive from B1. Description: self-cleavage kobs at 40 uM GlcN6P; higher = faster cleavage; RNA array. Put shortly:
as §1

Variants of B1 are the subject of series [4]. Nature of the series: self-cleavage kobs at 160 uM GlcN6P; higher = faster cleavage; RNA array. In a few lines:
as §1

The variants in series [5] derive from B1. Description: self-cleavage kobs at 640 uM GlcN6P; higher = faster cleavage; RNA array. In a few lines:
as §1

The variants in series [6] derive from B1. Description: self-cleavage kobs at 2500 uM GlcN6P; higher = faster cleavage; RNA array. Put shortly:
as §1

Variants of B1 are the subject of series [7]. Description: self-cleavage kobs at 10000 uM GlcN6P; higher = faster cleavage; RNA array. In a few lines: as §1

Take AUAAAAGCGCCAGAACUACAGAAAUGUAGAUGACGAGGAGGAGGUUUAUUGAAUUUUCGGCGGAUGCCUCCAAA [U30A C50U]: the kcat – broadly, the number of substrate molecules converted per active site and unit of time at saturation – in series [1] came to 1.13e-05 ± 4.2e-06 s⁻¹.
Turning to AUAAAAGCGCCAUAACUACAGAAAUGUAGUUGACGAGGAGGAGGUGUAUCGCAUUUUCGGCGGAUGUCUGCAAA [G13U U46G A52C C67U C70G], the turnover number (kcat) in series [1] came out at 2.41e-05 ± 6.8e-06 s⁻¹.
With AUAAAAGCGCCAGAACUACAGAAAUGUAGUUGACGAGGAUGCGGUUUAUCGAAUUUUCGGCGGAUGCCUCCAAA [G40U A42C], in series [1], the kcat was determined as 1.23e-05 ± 9.1e-08 s⁻¹. Also, in series [2], the Michaelis-Menten constant (KM) (as a rule, the substrate concentration at which the rate is half of its maximum) was determined as 2280 ± 50 µM.
For the variant AUAAAAGCGCCAGAACUACAGAAAUGUAGUUGACGAGGAUGAGGUUUAUCGAAUUUUCGGCGGAUGCCUCGAAA [G40U C71G], the catalytic constant (kcat) in series [1] worked out at 0.00552 ± 0.00087 s⁻¹. In series [2], the KM came to 1200 ± 280 µM. Also, the “self-cleavage kobs at 40 uM GlcN6P” value in series [3] is 0.000211 ± 2.1e-05 s⁻¹. The “self-cleavage kobs at 160 uM GlcN6P” value in series [4] was determined as 0.000498 ± 8.3e-05 s⁻¹. For the same variant, the “self-cleavage kobs at 640 uM GlcN6P” value in series [5] was 0.00193 ± 0.00025 s⁻¹. Also, in series [6], the “self-cleavage kobs at 2500 uM GlcN6P” value was determined as 0.00351 ± 0.00048 s⁻¹. Besides, the “self-cleavage kobs at 10000 uM GlcN6P” value in series [7] was 0.00519 ± 0.00058 s⁻¹.
As for AUAAAAGCGCCAGAACUACAGAAAUGUAGUUGACGAGGAGGAUGUUUAUCGAAAAUUCGGCGGAUGGUUCCAAA [G43U U54A U55A C67G C68U], in series [1], the kcat came to 0.000164 ± 6.5e-05 s⁻¹. For the same variant, the “self-cleavage kobs at 10000 uM GlcN6P” value in series [7] worked out at 7.92e-05 ± 2.1e-05 s⁻¹.
On to AUAAAAGCGCCAGCGCUACAGAAAUGUAGUUGACGAGGAGGAGGUUUAUCGAAUUUUCGGCGGAUGCCUCCAAA [A14C A15G], for which, in series [1], the turnover number (kcat) was found to be 0.00631 ± 0.0025 s⁻¹. Also, the Michaelis-Menten constant (KM) in series [2] was determined as 6250 ± 2900 µM. Moreover, the “self-cleavage kobs at 40 uM GlcN6P” value in series [3] is 5.61e-05 ± 7.9e-06 s⁻¹. Moreover, the “self-cleavage kobs at 160 uM GlcN6P” value in series [4] came out at 0.000127 ± 1.8e-05 s⁻¹. Besides, in series [5], the “self-cleavage kobs at 640 uM GlcN6P” value was found to be 0.000597 ± 6.6e-05 s⁻¹. For the same variant, the “self-cleavage kobs at 2500 uM GlcN6P” value in series [6] came out at 0.00192 ± 0.00022 s⁻¹. Moreover, the “self-cleavage kobs at 10000 uM GlcN6P” value in series [7] was 0.00369 ± 0.00064 s⁻¹.
On to AUAAAAGCGCCAGAACUACAGAAAUGUAGUUGACGAGGAGGAGGUUUAUCGAAUUUUCGGCGGAUGUCUACAAA [C67U C70A], for which the kcat in series [1] turned out to be 1.69e-05 ± 4.5e-06 s⁻¹.
For the variant AUAAAAGCGCCAGAACUACAGAAAUGUACUUGACGAGGAGGAGGUUUAUCGUAUUUUCGGCGGAUGCCUGCAAA [G29C A52U C70G], in series [1], the kcat was 2.41e-05 ± 5.5e-06 s⁻¹. Moreover, the “self-cleavage kobs at 40 uM GlcN6P” value in series [3] is below 1e-05 s⁻¹.
Take AUAAAAGCGCCAGAACUACAGAAAUGUAGUUGACGGGGAGGAGGUUUAUCGAAUUUUCGGCGGAUGCCUUCAAA [A36G C70U]: the kcat in series [1] came out at 3.34e-05 ± 3.8e-06 s⁻¹. Moreover, the “self-cleavage kobs at 2500 uM GlcN6P” value in series [6] turned out to be 3.3e-05 ± 1.3e-05 s⁻¹. For the same variant, the “self-cleavage kobs at 10000 uM GlcN6P” value in series [7] turned out to be 2.96e-05 ± 1.1e-05 s⁻¹.
Consider AUAAAAGCGCCCGAACUACAGAAAUGUAGUUGACGAGGAGGAGGUUAAUCGAAUUUUCGACGGAUGCCUCCAAA [A12C U47A G60A], for which the kcat in series [1] was below 1e-05 s⁻¹.
As to AUAAAAGCGCUAGAACUACAGAAAUGUAGUUGACGAGGAGGAGGUUUAUCGAGUUUUCGGCGGAUGCCUCCAAA [C11U A53G], the catalytic constant (kcat) in series [1] came to 0.00166 ± 9.2e-05 s⁻¹. In addition, the KM in series [2] turned out to be 1400 ± 120 µM. In addition, the “self-cleavage kobs at 40 uM GlcN6P” value in series [3] came to 5.07e-05 ± 5.9e-06 s⁻¹. Further, the “self-cleavage kobs at 160 uM GlcN6P” value in series [4] is 0.000156 ± 2e-05 s⁻¹. Further, the “self-cleavage kobs at 640 uM GlcN6P” value in series [5] was 0.000513 ± 4.2e-05 s⁻¹. Further, the “self-cleavage kobs at 2500 uM GlcN6P” value in series [6] came out at 0.00111 ± 0.00013 s⁻¹. For the same variant, the “self-cleavage kobs at 10000 uM GlcN6P” value in series [7] stood at 0.00145 ± 0.00012 s⁻¹.
Regarding AUAAAAGCGCCAUAACUACAGAAAUGUAGUUGACGAGGAGGAGGUUUAUCGAAUUUUCGGCGGAUGCGUCCAAA [G13U C68G], the kcat in series [1] worked out at 2.36e-05 ± 6.5e-06 s⁻¹.
AUAAAAGCGCCAGAACUACAGAAAUGUAGUUGGCGAGGAGGAGGUUUAUCGAAUUUUCGGCGGAUGCCUACAAA [A33G C70A]: in series [1], the kcat turned out to be 1.84e-05 ± 4.6e-06 s⁻¹.
In the case of AUAAAAGCGCCAGAACUACAGAAAUGUAGUUGACGAGGAGGAGGUUUAUCCAAUUUUCGGCGGAUGCCGCCAAA [G51C U69G], the catalytic constant (kcat) in series [1] was determined as 1.7e-05 ± 4.2e-06 s⁻¹.
